The text below walks through data of patent publication US20240383983A1 (ABL BIO, published 2024).

The chains are these.
T1: human B7-H4 expressed on cells (CHOK-1 B7-H4, SK-BR3, CAMA-1, MDA-MB-468, MX-1, OVCAR-3) (human, UniProt Q7Z7D3 25-282)
T1 construct: whole, on cells; also called B7-H4 expressed cell line; B7-H4 positive cancer cell lines
T1 sequence (looked up): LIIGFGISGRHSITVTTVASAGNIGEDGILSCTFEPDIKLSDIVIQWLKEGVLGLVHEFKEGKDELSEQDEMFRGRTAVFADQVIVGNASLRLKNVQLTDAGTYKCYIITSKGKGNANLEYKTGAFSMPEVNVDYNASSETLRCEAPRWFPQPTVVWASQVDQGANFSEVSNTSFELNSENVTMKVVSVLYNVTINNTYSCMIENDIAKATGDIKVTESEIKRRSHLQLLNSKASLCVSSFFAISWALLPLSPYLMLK

B1: 73B4F10 (mouse monoclonal anti-B7-H4 antibody) (antibody, V domains shown)
VH: QVQLQQPGTELVKPGASVKLSCKASGYTFTSYWMHWVKQRPGQGLERIGHINPSNGGTNYNEKFKKKATLTVDKSSSTAYMQLSSLTSEDSAVYYCARSEFYYGTVFAYWGQGTLVTVSA
VL: DVLMTQTPLSLPVSLGDQASISCRSSQSIVHGNGNTYLEWYLQKPGQSPKLLIYKVSNRFSGVPDRFSGSGSGTDFTLKISRVEAEDLGVYYCFQGSHDPPTFGGGTKLEIK
notes: Mouse hybridoma antibody, detected with anti-mouse IgG Fc; also called 73B4F10 (from mouse)
B2: 16E3H3 (mouse monoclonal anti-B7-H4 antibody) (antibody, V domains shown)
VH: QIQLVHSGPELKKPGETVKISCKASGYPFTTYGMNWVKQAPGKGLKWMGWIDTYSGVPTYADDFKGRFAFSLETSASTAYLQINNLKNEDTATYFCARRSFWYFDVWGTGTTVTVSS
VL: DVVMTQTPLSLPVSLGDQASISCRSSQSLVHSNGNTYLHWYLQKPGQSPKLLIYKVSNRFSGVPDRFSGSGSGTDFTLKIRRVEAEDLGVYFCSQSTHVPWTFGGGTKLEIK
notes: Mouse hybridoma antibody, detected with anti-mouse IgG Fc; also called 16E3H3 (from mouse); 16E3H3 clone
B3: 23B6C2 (mouse monoclonal anti-B7-H4 antibody) (antibody, V domains shown)
VH: QVTLKESGPGILQPSQTLSLTCSFSGFSLSTFGMGVGWIRQPSGKGLEWLAHIWWDDDKYYNSALKSRLTISKETSKNQIFLKIANVDTTDTATYYCVRKDYYGYRGFAYWGQGTLVTVSA
VL: QLVLTQSSSASFSLGASAKLTCTLSSQHTTYTIEWYQQQPLKPPKYVMELKKDGSHSTGDGIPDRFSGSSSGADRYLCISNIQPEDEAIYICGVGDTIKEQFVYVFGGGTKVTVL
notes: Mouse hybridoma antibody, detected with anti-mouse IgG Fc; also called 23B6C2 (from mouse)

One experiment concerns the target T1, human B7-H4 expressed on cells (CHOK-1 …). Description: FACS on MDA-MB-468 cells, 100 nM antibody, FITC anti-mouse IgG Fc detection (FL1-H). As for the experimental part:
(§1) To evaluate the antigen binding property, the mouse antibody candidates generated according to Preparation Example 1-1 were analyzed for their bindings to B7-H4 expressed cells (SK-BR3, CAMA-1 and MDA-MB-468) or B7-H4 negative expressed cell (PANC-1). Briefly, each cells were treated with the 100 nM of indicated antibodies at 4° C. for 1 hr. After washing by FACS buffer (1% BSA in PBS), Cells were incubated with the FITC anti-mouse IgG Fc antibody at 4° C. for 1 hr and then subjected to FACS analysis. As shown FIG. 1, anti-B7-H4 mouse antibodies bound to B7-H4 expressed SK-BR3, CAMA-1 and MDA-MB-468 cell lines but not B7-H4 negative PANC-1. […] Based on the ranking results, 16E3H3 clone was selected for humanization.
In the case of B1, the MFI is 20.1.

Molecule B2 had an MFI of 77.6.

In the case of B3, the MFI stood at 22.

Another experiment shares this target. Description: FACS on SK-BR3 cells, 100 nM antibody, FITC anti-mouse IgG Fc detection (FL1-H). As for the experimental part: as §1
The molecule B1 returned an MFI of 5.95.

As for B2, the MFI is 25.3.

Take B3: the MFI is 7.85.

A further experiment shares this target. In words: FACS on CAMA-1 cells, 100 nM antibody, FITC anti-mouse IgG Fc detection (FL1-H). As for the experimental part: as §1
B1 returned an MFI of 29.

Consider B2, for which the MFI came out at 463.

In turn, B3 registered an MFI of 47.4.
